The test deals with T1, purified, native RG1 protein produced in transfected BHK cells (human, UniProt Q9BUD6 27-331).
T1 construct: also called BHK-RG1; nRG1
T1 chain: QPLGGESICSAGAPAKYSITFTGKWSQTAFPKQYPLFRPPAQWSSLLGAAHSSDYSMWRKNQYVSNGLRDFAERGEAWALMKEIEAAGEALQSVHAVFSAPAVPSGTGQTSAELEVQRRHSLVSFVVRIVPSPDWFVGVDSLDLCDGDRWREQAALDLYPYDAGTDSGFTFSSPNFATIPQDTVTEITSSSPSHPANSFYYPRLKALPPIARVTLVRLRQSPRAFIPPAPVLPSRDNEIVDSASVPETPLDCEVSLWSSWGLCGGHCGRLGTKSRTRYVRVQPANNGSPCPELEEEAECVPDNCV
The test is described as follows: BIAcore SPR; mab captured on anti-human IgG Fc, soluble BHK-RG1 12.5-400 nM; 1:1 Langmuir fit. How it is done:
Kinetic constants (KD, kₐ and kd) of mab binding to native RG1 protein were determined by BIAcore using a capture format in which soluble, native RG1 protein was bound to immobilized mab on a sensor chip. ImmunoPure rabbit anti-human IgGFc (Pierce, 31142) was covalently immobilized to the Sensor Chip CM5 (Biacore, BR-1000-12) using standard amine coupling methods. 100 ug/ml antibody diluted in 10 mm acetate, pH 4.0 was used at 5 ul/min. HBS-EP (Biacore, BR-1001-88) was used as mobile phase. Unreacted sites were blocked with ethanolamine. Mabs were diluted to 200 nM with HBS and 50 μl was injected per cycle at 10 ul/min. Serial dilutions of BHK-RG1 (12.5-400 nM) were bound to the immobilized mab. Dissociation kinetics were measured immediately after the antigen injection was completed at 20 μl/min for 8 minutes. The surface was regenerated following each cycle using 25 ul of 10 mm glycine, pH 1.8 and then washed with HBS.
Typically, five concentrations and a media control were run. Data were fit to a 1:1 Langmuir model using the software provided by the instrument manufacturer (BIAevaluation 3.0), and kinetic constants were calculated. Equilibrium constants were in the nanomolar range with favorable dissociation rates (10⁻⁴ s⁻¹).
(In general: SPR reads the build-up and loss of mass on a sensor chip optically.)

Data on one molecule can be found in patent US20100081795A1 (Bayer, published 2010).

As a reminder, the Kd is the free concentration of one partner at which half of the binding sites on the other are occupied at equilibrium, for simple one-to-one binding. The term koff denotes the rate constant with which the complex falls apart. High values mean a short-lived complex, low ones a long-lived complex. A word on the kon: it is a measure of how fast the partners come together. A low value points to slower complex formation.

B1: human RG1 monoclonal antibody B (antibody, V domains shown)
VH: EVQLVQSGGGLVHPGGSLRLSCAGSGFTFSSYVMHWLRQAPGKGLEWVSVIGTGGVTHYADSVKGRFTISRDNAKNSLYLQMNSLRAEDMAMYYCARWGYYGSGSYENDAFDIWGQGTMVTVSS
VL: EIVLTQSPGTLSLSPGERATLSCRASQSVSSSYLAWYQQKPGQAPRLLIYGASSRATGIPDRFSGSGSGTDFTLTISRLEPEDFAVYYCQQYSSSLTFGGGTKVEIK
notes: Hybridoma-derived human antibody with a kappa light chain; also called Mab B
For the molecule B1, the Kd was 8.4 nM, the koff worked out at 0.00023 s⁻¹ and the kon is 29000 M⁻¹ s⁻¹.
